Experimental data as given in US10772972B2, “Anti-STEAP2 antibody drug conjugates, and compositions and uses thereof” (Regeneron Pharmaceuticals, Inc., priority 2016, dated 2020).
Substitutions are numbered along the chain they refer to. Values joined by “and” are separate entries in the source; they are usually repeats but may differ in a detail not shown here. Identical values can stand only once.

B1: BSSTEAP2/CD3-001: STEAP2×CD3 bispecific: anti-STEAP2 HCVR H2M11162N (SEQ 250), anti-CD3 HCVR CD3-VH-G (SEQ 1730), common LCVR SEQ 258 (antibody, V domains shown)
VH 1: QVQLQQSGPGLVKPSQTLSLTCAISGDSVSSNRAAWNWIRQSPSRGLQWLGRTYYRSKWYNDYAVSLRSRITINPVTSKNQVALHMNSVTPEDTAVYYCARAGIVVVPGPETFYYYDHGLDVWGQGTTVTVSS
VH 2: EVQLVESGGGLVQPGRSLRLSCAASGFTFDDYSMHWVRQAPGKGLEWVSGISWNSGSKGYADSVKGRFTISRDNAKNSLYLQMNSLRAEDTALYYCAKYGSGYGKFYHYGLDVWGQGTTVTVSS
VL: DIQMTQSPSSLSASVGDRVTITCRASQSIRSYLNWYQQKPGKAPELLIHAASSLQSGVPSRFSGSGSGTDFTLTISSLQPEDFASYYCQQSYSAPPITFGQGTRLEIK
B2: BSSTEAP2/CD3-002: STEAP2×CD3 bispecific: anti-STEAP2 HCVR H2M11162N (SEQ 250), anti-CD3 HCVR CD3-VH-G5 (SEQ 1762), common LCVR SEQ 258 (antibody, V domains shown)
VH 1: B1 VH 1
VH 2: B1 VH 2 with K58I, Y99D, H108Y, L111M
VL: B1 VL
B3: BSSTEAP2/CD3-003: STEAP2×CD3 bispecific: anti-STEAP2 HCVR H2M11162N (SEQ 250), anti-CD3 HCVR CD3-VH-G20 (SEQ 1866), common LCVR SEQ 258 (antibody, V domains shown)
VH 1: B1 VH 1
VH 2: B1 VH 2 with K58I, H108Y, L111M
VL: B1 VL
B4: BSSTEAP2/CD3-005: STEAP2×CD3 bispecific: anti-STEAP2 H1H11162 (SEQ 250), anti-CD3 H1H7208P (SEQ 1490), common LCVR SEQ 258 (antibody, V domains shown)
VH 1: B1 VH 1
VH 2: QVQLVESGGGLVHPGRSLRLSCAASGFKFDDYTMHWVRQAPGKGLEWVSDISWNSGSKGYADSVKGRFTISRDNAKDSLYLQMDSLRAADTAFYYCAKDKSGYGHFYYYAMDVWGQGTTVTVSS
VL: B1 VL
B5: BSSTEAP2/CD3-007: STEAP2×CD3 bispecific: anti-STEAP2 H1H11162 (SEQ 250), anti-CD3 H1H7195P (SEQ 1450), common LCVR SEQ 258 (antibody, V domains shown)
VH 1: B1 VH 1
VH 2: EVQLVESGGGLVQPGRSLRLSCAASGFTFADYTMHWVRQAPGKGLEWVSDISWNSGSIAYADSVKGRFTISRDNAKNSLYLQMNSLRTEDTAFYYCAKDSRGYGHYKYLGLDVWGQGTTVTVSS
VL: B1 VL
B6: BSSTEAP2/CD3-009: STEAP2×CD3 bispecific: anti-STEAP2 H1H11164 (SEQ 282), anti-CD3 H1H7208P (SEQ 1490), common LCVR SEQ 290 (antibody, V domains shown)
VH 1: B1 VH 1 with A23V, S31T, R33S, Q48E, L67V, M86L, F113Y, D117Y
VH 2: B4 VH 2
VL: B1 VL with S28N, E45K, A50V, S85T, A94T, Q101H
B7: BSSTEAP2/CD3-006: STEAP2×CD3 bispecific: anti-STEAP2 H1H11162 (SEQ 250), anti-CD3 CD3-VH-P (SEQ 1882), common LCVR SEQ 258 (antibody, V domains shown)
VH 1: B1 VH 1
VH 2: B1 VH 2 with A23V, G59D
VL: B1 VL
B8: BSSTEAP2/CD3-004: STEAP2×CD3 bispecific: anti-STEAP2 H1H7814N (SEQ 218), anti-CD3 H1H7251P (SEQ 1570), common LCVR SEQ 226 (antibody, V domains shown)
VH 1: QVQLVESGGGVVQPGRSLRLSCVASGFTISSYGMNWVRQAPGKGLEWVAVISYDGGNKYSVDSVKGRFTISRDNSKNTLYLQMNSLRAEDSAVYYCARGRYFDLWGRGTLVTVSS
VH 2: EVQLVESGGGLVQPGRSLRLSCAASGFTFADYTMHWVRQGPGTGLEWVSDIGWSGGSLGYADSVKGRFTISRDNAKNSLYLEMNNLRPEDTALYYCVKDKSGYGKFQYGLDVWGQGTTVTVSS
VL: DIQMTQSPSTLSASVGDRVTITCRASQSISSWLAWYQQKPGRAPNLLISKASSLKSGVPSRFSGSGSGTEFTLTVSSLQPDDFATYYCQQYYSYSYTFGQGTKLEIK

test system: human prostate cancer C4-2 cells (xenograft); assay: C4-2/human PBMC co-implant xenograft in NSG mice, immediate dosing; format: in vivo, mouse; conditions: C4-2/NSG, 0.01 mg/kg i.p. on day of implantation
From the text: To assess the in vivo efficacy of the anti-STEAP2/anti-CD3 bispecifics in human tumor xenograft studies, NOD scid gamma (NSG) mice (Jackson Laboratories, Bar Harbor, Me.) were co-implanted with human peripheral blood mononuclear cells (PBMCs; ReachBio LLC., Seattle, Wash.) along with human prostate cancer C4-2 cells (MD Anderson Cancer Center, Houston Tex.) which endogenously express STEAP2.
Briefly, 5.0×10^6 C4-2 cells were co-implanted subcutaneously (s.c.) with 1.25×10^6 human PBMCs in a 50:50 mix of matrigel matrix (BD Biosciences, San Jose, Calif.) into the right flank of male NSG mice. Mice were treated intraperitoneally (i.p.) on the day of implantation (immediate treatment model) with anti-STEAP2/anti-CD3 bispecifics BSSTEAP2/CD3-001, BSSTEAP2/CD3-002 or BSSTEAP2/CD3-003, or an isotype control, at a dose of 0.1 or 0.01 mg/kg (N=5 mice/group).
Tumor size was measured 2×/week using calipers and tumor volume calculated as Volume=(length×width^2)/2. Data is shown as tumor size (mm^3) at study endpoint, 46 d post-tumor implantation (Table 7).

Molecule | Tumor Size (mm^3) 46 d post-tumor implantation (mean ± SD)
B1 | 23.0 ± 220 mm^3
B2 | 17.0 ± 8.0 mm^3
B3 | 25.0 ± 21.0 mm^3

same assay, conditions: C4-2/NSG, 0.1 mg/kg i.p. on day of implantation

Molecule | Tumor Size (mm^3) 46 d post-tumor implantation (mean ± SD)
B1 | 18.0 ± 14.0 mm^3
B2 | 15.0 ± 12.0 mm^3
B3 | 19.0 ± 12.0 mm^3

same assay, conditions: C4-2/NSG, 0.1 or 0.01 mg/kg

Molecule | Tumor growth compared to isotype control at study endpoint (in words)
B1 | significantly suppressed tumor growth
B2 | significantly suppressed tumor growth
B3 | significantly suppressed tumor growth

test system: cynomolgus T cells; assay: FACS binding titration of STEAP2xCD3 bispecifics on cynomolgus T cells; conditions: 66.6 nM to 0.001 nM, 30 minutes at 4° C.
Protocol: FACS Binding Titration on Jurkat Cells, PC3_STEAP2/1 Cells and cynomolgus T Cells: Flow cytometric analysis was utilized to determine binding of STEAP2×CD3 bispecific antibodies to Jurkat, PC3_STEAP2/1 chimeric and cynomolgus T cells, followed by detection with a phycoerythrin (PE)-labeled anti-human IgG antibody. Briefly, 2×10^5 cells/well were incubated for 30 minutes at 4° C. with a serial dilution of STEAP2×CD3 bispecific antibodies or control antibody (a human IgG1 antibody that binds a feline antigen with no cross-reactivity to STEAP2 or human or cynomolgus CD3) ranging from 66.6 nM to 0.001 nM. After incubation, the cells were washed twice with cold PBS containing 1% filtered FBS and a PE-conjugated anti-human secondary antibody was added to the cells and incubated for an additional 30 minutes. Wells containing no antibody or secondary antibody only were used as a control. After incubation, cells were washed, re-suspended in 200 μL cold PBS containing 1% filtered FBS and analyzed by flow cytometry on a BD FACS Canto II.

Molecule | EC50 | Cynomolgus T cells EC50 [M]
B1 | 7.27 nM | 
B4 |  | No Binding
B5 | 17.3 nM | 
B6 |  | No Binding
B7 | 7.99 nM | 
B8 | 1.99 nM | 

test system: monkey PBMCs; assay: T cell proliferation assay, cynomolgus PBMC; format: cell-based; conditions: across donors tested
Protocol: Thawed human or freshly isolated monkey PBMCs (50,000 cells/well) were incubated with 3-fold (human, concentration range: 5E-10M to 2.82E-15M; cynomolgus, concentration range: 1E-09M to 4.57E-13M) serial dilutions of STEAP2×CD3 bispecifics or isotype control in complete medium (RPMI supplemented with 10% FBS, 100 U/mL penicillin, 100 μg/mL streptomycin, 292 μg/mL L-glutamine) and a fixed concentration (human: 200 ng/mL, cyno: 500 ng/mL) of a commercial anti-CD28 antibody (Biolegend, Catalog #302914) in white flat bottom 96-well plates for 72 hours at 37° C. Isolated monkey PBMCs were from two donors (identified as mk8781M or mk9381M). Following incubation, CellTiter Glo® (Promega, Cat #7573) was added and luminescence, as readout for cell viability, was measured using a VICTOR X5 multi-label plate reader. Cell titer was calculated by dividing the luminescence of stimulated cells by the baseline luminescence of unstimulated cells.

Molecule | Cynomolgus PBMC proliferation activity (in words)
B1 | induced robust cynomolgus PBMC proliferation in all donors tested
B4 | no activity
B5 | donor dependent
B6 | no activity
B7 | induced robust cynomolgus PBMC proliferation in all donors tested
B8 | donor dependent

same assay, conditions: donor mk9381M; anti-CD28 500 ng/mL, 72 hours; read-out: Cyno PBMC Proliferation [M] (donor)

Molecule | EC50
B1 | 4.6e-12 M and 4.59e-12 M
B7 | 1.53e-11 M
